{"source": "patent US20260265385A1", "about": "“CD122 BINDING AGENTS AND METHOD OF USING SAME” (AnaptysBio, Inc., priority 2022, published 2026)", "molecules": {"B1": {"name": "M10-1275: anti-CD122 IgG4 antibody of the M10-1275 class tested in Example 4; APE number not stated (antibody, V domains shown)", "VH": "DVQLQQSGAELARPGASVKLSCTVSGFNFKDSLMHWVTQGPERGLRWIGWIDSENGETEYAPGFQDKATITADTSSSTVYLHLSSLTSEDTAIYYCARGGPWFLSYWGPGTTLTVSS", "VL": "DIVLTQTPATLSVTPGDSVSLSCRASQIISNNLHWYQQKSHESPRLLIIYGLQSISGIPYRFSGRRSGTDFTLNINSVEIEDFGMYFCQQSNNWPWTFGGGTKLDIRR"}, "B2": {"name": "APE12705: M10-1275 series anti-CD122 antibody (chimeric in Table 3), VH SEQ ID NO: 1, VL SEQ ID NO: 25 (antibody, V domains shown)", "VH": "B1 VH", "VL": "B1 VL"}, "B3": {"name": "APE15428: M6-p1625 series anti-CD122 antibody, VH SEQ ID NO: 69, VL SEQ ID NO: 77 (antibody, V domains shown)", "VH": "QVQLVQSGAEVKKPGASVKVSCKASGYTFTRFWIQWVRQAPGQGLEWMGEILPGSGSINHNEKFQGRVTMTRDTSTSTVYMELSSLRSEDTAVYYCTRHYGSFDYWGQGTTVTVSS", "VL": "DIQMTQSPSSLSASVGDRVTITCKASQNVGTDVAWYQQKPGKAPKSLIYSASYRYSGVPSRFSGSGSGTDFTLTISSLQPEDFATYFCHQYESYPFTFGQGTKLEIKR", "modifications": "IgG1 LALA Fc format"}, "B4": {"name": "APE15295: M6-p1625 series anti-CD122 antibody, VH SEQ ID NO: 68, VL SEQ ID NO: 77 (antibody, V domains shown)", "VH": "B3 VH", "VL": "B3 VL", "modifications": "IgG4P format"}, "B5": {"name": "M6-1625: anti-CD122 IgG4 antibody of the M6-p1625 class tested in Example 4; APE number not stated (antibody, V domains shown)", "VH": "QVQLQQSGAELMKPGASVKISCKSTGYTFSRYWIEWVKQRPGHGLEWIGEILPGSGSINHNEKFQGKATFTADTSSNTVYMQLSSLTSEDSAVYFCTRHYGSFDYWGQGTTLTVSS", "VL": "EIVMTQSPKFMSTSVGDRVSVTCKASQNVGTDVAWYQQKPGQSPKALIYSASYRYNGVPDRFTGSGSGTDFTLTISNVQSEDLAEYFCHQYSSYPFTFGSGTKLEIKR"}, "B6": {"name": "APE12383: M6-p1625 series anti-CD122 antibody (chimeric in Table 3), VH SEQ ID NO: 37, VL SEQ ID NO: 70 (antibody, V domains shown)", "VH": "B5 VH", "VL": "B5 VL"}, "B7": {"name": "APE15170: M10-1275 series anti-CD122 antibody, VH SEQ ID NO: 23, VL SEQ ID NO: 35 (antibody, V domains shown)", "VH": "EVQLVQSGAEVKKPGATVKISCKVSGFNFKESLIHWVQQAPGKGLEWMGWIDNEAGETEYAPGFQDRVTITADTSTDTAYMELSSLRSEDTAVYYCARGGPWFLSYWGQGTTVTVSS", "VL": "EIVMTQSPATLSVSPGERATLSCRASQIISNNLHWYQQKPGQAPRLLIIYGLQSISGIPARFSGSRSGTEFTLTISSLQSEDFAVYFCQQSNNFPWTFGQGTKLEIKR", "modifications": "IgG4P format"}, "B8": {"name": "APE15446: M10-1275 series anti-CD122 antibody, VH SEQ ID NO: 24, VL SEQ ID NO: 35 (antibody, V domains shown)", "VH": "B7 VH", "VL": "B7 VL"}}, "key": {"[1]": {"system": "PHA-stimulated primary human T cell blasts", "test": "IL-2- or IL-15-induced proliferation of PHA-stimulated T cell blasts (CTG)", "format": "cell-based", "conditions": "IL-2 (15 pM) or IL-15 (150 pM) induced proliferation, IgG4 antibodies, compared with upadacitinib, FIG. 4", "protocol": "Primary human PBMCs were isolated from whole blood donors, and stimulated in cuture for 3 days with 5 μg/mL PHA in a T75 flask. Cells were washed, counted, and plated at 100,000 cells/well in a 96-well plate. Antibodies were titrated at the concentrations indicated in FIG. 4, starting at 100 nM with 1:3 dilutions, and added to the cells. Recombinant IL-2 (15 pM) or IL-15 (150 pM) were added to the cells. Cells were cultured for an additional three days. SteadyGlo substrate was added for 10 minutes and the plates were read on the GloMax machine. Data were analyzed using Graphpad Prism software."}, "[2]": {"molecular_target": "T1, IL-2RB (Homo sapiens, UniProt P14784)", "T1 sequence (P14784 27-551)": "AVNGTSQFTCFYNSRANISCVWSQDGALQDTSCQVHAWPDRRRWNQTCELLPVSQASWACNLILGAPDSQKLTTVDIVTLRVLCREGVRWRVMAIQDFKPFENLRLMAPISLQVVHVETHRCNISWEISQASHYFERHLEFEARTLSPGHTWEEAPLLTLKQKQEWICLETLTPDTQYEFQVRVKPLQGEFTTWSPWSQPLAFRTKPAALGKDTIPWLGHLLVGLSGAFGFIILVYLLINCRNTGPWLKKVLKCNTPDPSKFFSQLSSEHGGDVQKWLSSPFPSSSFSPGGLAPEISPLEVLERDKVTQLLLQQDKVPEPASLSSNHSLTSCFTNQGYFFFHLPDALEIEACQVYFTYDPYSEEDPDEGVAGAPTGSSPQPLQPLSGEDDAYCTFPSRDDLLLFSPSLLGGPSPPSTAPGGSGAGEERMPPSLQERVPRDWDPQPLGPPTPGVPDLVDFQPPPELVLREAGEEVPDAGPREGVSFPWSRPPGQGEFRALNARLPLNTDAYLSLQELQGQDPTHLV", "test": "Ability to block IL-2 (SPR assay)", "format": "binding", "conditions": "chimeric antibodies"}, "[3]": {"molecular_target": "T2, Human IL-2Rβ (Homo sapiens, UniProt P14784)", "T2 construct": "corresponding to residues Ala1-Thr215 of the extracellular domains excluding the signal peptide", "T2 sequence (P14784 26-240 limits assumed)": "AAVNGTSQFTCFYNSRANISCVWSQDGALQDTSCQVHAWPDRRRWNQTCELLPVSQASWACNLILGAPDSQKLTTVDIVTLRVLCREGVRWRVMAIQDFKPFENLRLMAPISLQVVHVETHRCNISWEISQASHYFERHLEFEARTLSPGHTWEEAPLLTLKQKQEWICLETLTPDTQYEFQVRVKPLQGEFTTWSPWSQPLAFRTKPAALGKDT", "test": "SPR binding affinity to recombinant human IL-2Rβ (Biacore)", "conditions": "1:1 binding model", "protocol": "(§1) Surface plasmon resonance (SPR) was used to determine the binding affinities. The M6-1625 and M10-1275 antibodies were captured onto a Cytiva Protein A Chip for 60 seconds at 0.5 μg/mL for 60 seconds. The antibodies were exposed to recombinant human LL-2Rβ or cynomolgus LL-2Rβ (corresponding to residues Ala1-Thr215 of the extracellular domains excluding the signal peptide) at typical concentrations ranging from 0.4 nM to 11 nM with typical 300 second associations and 1200 second dissociations using a BiacoreS200 instrument. Sensorgrams were fit globally using a 1:1 binding model in the Biacore T200 Evaluation Software to calculate on- and off-rates and KD values."}, "[4]": {"molecular_target": "T3, Cynomolgus IL-2Rβ (Macaca fascicularis, UniProt Q38J85)", "T3 construct": "corresponding to residues Ala1-Thr215 of the extracellular domains excluding the signal peptide", "T3 sequence (Q38J85 26-240 limits assumed)": "T2 sequence (P14784 26-240 limits assumed) with Q8R, A67T, T75A, L84M, V93M, E128K, L159M", "test": "SPR binding affinity to recombinant cynomolgus IL-2Rβ (Biacore)", "conditions": "1:1 binding model", "protocol": "as §1"}, "[5]": {"system": "xenogeneic NSG(huIL-15Tg)/Hu-PBMC Graft vs. Host Disease (GvHD) model", "test": "Xenogeneic NSG(huIL-15Tg)/Hu-PBMC GvHD model, Example 14", "format": "in vivo, mice", "conditions": "10 mg/kg, 3 mg/kg, or 1 mg/kg intraperitoneally twice weekly for 4 weeks; FIG. 14", "protocol": "A xenogeneic NSG(huIL-15Tg)/Hu-PBMC GvHD model testing the efficacy of the anti-CD122 antibody disclosed herein was performed at The Jackson laboratory JAX® In Vivo Pharmacology Services (Sacramento, CA). NOD-scidIL2rγ^null (NSG) human IL-15 transgenic mice were irradiated with 1 Gy followed by intravenous injection of human PBMCs in each mouse. APE15428 (IgG1-LALA) was dosed intraperitoneally at 10 mg/kg, 3 mg/kg, or 1 mg/kg twice weekly for 4 weeks starting the day following PBMC injection. Disease was monitored three times weekly by body weight loss, death, and GvHD scores measuring: weight loss, activity, fur texture, paleness, and posture."}}, "note": "Where a chain is given by its changes, count along the chain named.", "data": [{"molecule": "B1", "values": [{"measurement": "blocking IL-2 and IL-15", "setting": "[1]", "result": "better than upadacitinib"}]}, {"molecule": "B2", "values": [{"measurement": "Blocking (IL-2 down)", "setting": "[2]", "result": "Partial"}]}, {"molecule": "B3", "values": [{"measurement": "Kd", "setting": "[3]", "result": 0.0567, "unit": "nM"}, {"measurement": "Kd", "setting": "[4]", "result": 0.0765, "unit": "nM"}, {"measurement": "median time to survival vs. isotype control", "setting": "[5]", "result": "statistically significant efficacy"}]}, {"molecule": "B4", "values": [{"measurement": "Kd", "setting": "[3]", "result": 0.0557, "unit": "nM"}, {"measurement": "Kd", "setting": "[4]", "result": 0.0707, "unit": "nM"}]}, {"molecule": "B5", "values": [{"measurement": "blocking IL-2 and IL-15", "setting": "[1]", "result": "better than upadacitinib"}]}, {"molecule": "B6", "values": [{"measurement": "Blocking (IL-2 down)", "setting": "[2]", "result": "Blocker"}]}, {"molecule": "B7", "values": [{"measurement": "Kd", "setting": "[3]", "result": 0.0128, "unit": "nM"}, {"measurement": "Kd", "setting": "[4]", "result": 0.00487, "unit": "nM"}]}, {"molecule": "B8", "values": [{"measurement": "Kd", "setting": "[3]", "result": 0.0107, "unit": "nM"}, {"measurement": "Kd", "setting": "[4]", "result": 0.00415, "unit": "nM"}]}]}
